This is an account of results in publication PMC4607269 (Cell, 2015).

The assay has as its target His-xBuGZ (Xenopus, UniProt Q7ZXV8 1-452). In words: incorporation into His-xBuGZ droplets.

B1: GFP-xBuGZ-C (domain or fragment, Xenopus, UniProt Q7ZXV8 376-452, looked up)
chain: GAMMAPRPGLPPQQHGMRHPLPPHGQYGAPLQGMAGYHPGTMPPFGQGPPMVPPFQGGPPRPLMGIRPPVMSQGGRY
With B1, the binding result is listed as “binds”.

B2: YFP-tagged xBuGZ (Xenopus BuGZ) (natural protein)
chain: not shown
B2: the binding result was “binds”.

B3: GFP-xBuGZ-A (domain or fragment, Xenopus, UniProt Q7ZXV8 111-187, looked up)
chain: NQDDSDYDDDDDTAPSTSFQQMQTQQAFMPTMGQPGIPGLPGAPGMPPGITSLMPAVPPLISGIPHVMAGMHPHGMM
In the case of B3, the binding result is recorded as “binds”.

B4: GFP-xBuGZ-B (domain or fragment, Xenopus, UniProt Q7ZXV8 258-334, looked up)
chain: SAGQAQAHISGPVGTDFKPLNNIPATTAEHPKPTFPAYTQSTMSTTSTTNSTASKPSTSITSKPATLTTTSATSKLV
As to B4, the binding result is given as “binds”.
